Values belong to the binder of their own block, whether it stands above or below them.
What was measured:
[1] = target: T1, APC7 C-terminal part (amino acids 298 to 565) comprising the block of TPRs (human, UniProt Q9UJX3 298-565, limits assumed); assay: peptide binding assay with recombinant APC7 fragments
T1 construct: Recombinantly expressed fragment; also called APC7 TPR domain; APC7 C-terminal fragment

[2] = target: T2, recombinant HisHA-tagged APC5 (UniProt Q9UJX4 1-755); assay: peptide matrix pull-down from insect cell lysate, western blot
T2 construct: Expressed from baculovirus and used as insect cell lysate; not shown: HisHA tag

[3] = target: T3, recombinant HisHA-tagged APC8 (UniProt Q9UJX2 1-597); assay: as above
T3 construct: Expressed from baculovirus and used as insect cell lysate; also called APC8/CDC23; not shown: HisHA tag

[4] = target: T4, APC7 fragment containing the N-terminal 297 amino acids (human, UniProt Q9UJX3 1-297, limits assumed); assay: peptide binding assay with recombinant APC7 fragments
T4 construct: Recombinantly expressed fragment; also called APC7 N-terminal fragment

[5] = target: T5, native CDC26 from late-eluting Q column fractions of HeLa extract (human, UniProt Q8NHZ8 1-85); assay: peptide matrix pull-down from late-eluting Q column fractions, western blot
T5 construct: Endogenous protein in anion exchange fractions

[6] = target: T6, recombinant HisHA-tagged APC3 (human, UniProt P30260 1-824); assay: peptide matrix pull-down from insect cell lysate, western blot
T6 construct: Expressed from baculovirus in Sf9 or Hi5 cells and used as insect cell lysate; also called APC3/CDC27; not shown: HisHA tag

[7] = target: T7, holo-APC (Anaphase Promoting Complex / cyclosome) from HeLa cells (human, UniProt Q9H1A4 1-1944; Q9UJX6 1-822; P30260 1-824; Q9UJX5 1-808; Q9UJX4 1-755; Q13042 …); assay: peptide matrix pull-down from APC-containing fractions, western blot
T7 construct: Native multisubunit complex with 11 known subunits; It carries substoichiometric amounts of endogenous CDH1; also called immunopurified APC; APC-IPs

T1 sequence (Q9UJX3 298-565 limits assumed): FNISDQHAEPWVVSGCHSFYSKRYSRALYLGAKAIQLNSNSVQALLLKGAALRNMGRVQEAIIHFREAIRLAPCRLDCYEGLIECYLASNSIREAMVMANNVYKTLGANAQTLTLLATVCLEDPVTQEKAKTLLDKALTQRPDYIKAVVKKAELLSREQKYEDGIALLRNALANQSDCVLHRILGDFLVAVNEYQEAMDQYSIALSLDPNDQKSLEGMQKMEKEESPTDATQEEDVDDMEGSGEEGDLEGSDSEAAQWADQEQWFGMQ
T3 sequence (Q9UJX2 whole entry): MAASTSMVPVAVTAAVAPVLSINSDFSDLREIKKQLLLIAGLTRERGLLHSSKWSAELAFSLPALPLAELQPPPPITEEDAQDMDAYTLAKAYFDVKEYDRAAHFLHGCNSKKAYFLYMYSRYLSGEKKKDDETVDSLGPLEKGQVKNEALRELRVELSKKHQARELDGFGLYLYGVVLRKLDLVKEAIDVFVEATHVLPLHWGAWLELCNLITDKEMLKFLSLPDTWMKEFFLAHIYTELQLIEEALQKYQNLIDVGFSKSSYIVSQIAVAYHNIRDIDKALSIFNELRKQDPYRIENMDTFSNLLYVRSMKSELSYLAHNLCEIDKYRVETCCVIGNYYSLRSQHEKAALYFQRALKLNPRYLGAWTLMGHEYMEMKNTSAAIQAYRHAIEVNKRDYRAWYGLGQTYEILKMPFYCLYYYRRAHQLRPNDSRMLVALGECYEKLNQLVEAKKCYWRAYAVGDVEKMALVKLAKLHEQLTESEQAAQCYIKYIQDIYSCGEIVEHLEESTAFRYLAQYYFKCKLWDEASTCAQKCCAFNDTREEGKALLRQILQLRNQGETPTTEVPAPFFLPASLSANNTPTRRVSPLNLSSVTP
T2 sequence (Q9UJX4 whole entry): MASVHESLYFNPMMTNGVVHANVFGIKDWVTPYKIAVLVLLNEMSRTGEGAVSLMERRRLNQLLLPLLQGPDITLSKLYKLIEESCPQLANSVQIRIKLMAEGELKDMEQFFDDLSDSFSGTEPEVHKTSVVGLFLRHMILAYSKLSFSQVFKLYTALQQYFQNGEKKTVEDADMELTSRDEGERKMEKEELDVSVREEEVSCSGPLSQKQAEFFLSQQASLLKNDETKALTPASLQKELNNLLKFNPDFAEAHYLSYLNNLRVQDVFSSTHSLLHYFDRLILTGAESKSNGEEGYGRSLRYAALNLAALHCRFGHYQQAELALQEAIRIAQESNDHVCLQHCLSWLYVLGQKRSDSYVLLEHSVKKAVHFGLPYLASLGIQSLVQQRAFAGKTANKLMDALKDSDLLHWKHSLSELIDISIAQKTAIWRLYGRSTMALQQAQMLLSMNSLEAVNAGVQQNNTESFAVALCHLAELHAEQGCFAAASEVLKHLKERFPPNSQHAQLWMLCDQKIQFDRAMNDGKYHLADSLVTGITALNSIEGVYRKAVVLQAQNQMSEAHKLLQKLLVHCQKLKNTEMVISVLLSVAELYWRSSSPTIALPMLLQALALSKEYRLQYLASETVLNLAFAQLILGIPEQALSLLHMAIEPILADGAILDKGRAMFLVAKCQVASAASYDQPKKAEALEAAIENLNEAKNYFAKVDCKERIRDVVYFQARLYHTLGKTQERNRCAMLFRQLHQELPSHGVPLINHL
T5 sequence (Q8NHZ8 whole entry): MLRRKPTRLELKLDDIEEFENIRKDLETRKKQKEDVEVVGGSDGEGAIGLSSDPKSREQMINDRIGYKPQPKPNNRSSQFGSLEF
T4 sequence (Q9UJX3 1-297 limits assumed): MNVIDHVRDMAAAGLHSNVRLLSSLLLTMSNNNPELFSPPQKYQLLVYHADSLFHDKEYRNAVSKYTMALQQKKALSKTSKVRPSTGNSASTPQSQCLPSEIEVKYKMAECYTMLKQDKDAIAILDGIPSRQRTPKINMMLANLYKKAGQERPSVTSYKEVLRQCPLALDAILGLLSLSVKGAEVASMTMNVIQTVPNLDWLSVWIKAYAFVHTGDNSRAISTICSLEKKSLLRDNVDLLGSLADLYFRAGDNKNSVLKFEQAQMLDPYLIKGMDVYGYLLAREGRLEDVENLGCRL
T6 sequence (P30260 whole entry): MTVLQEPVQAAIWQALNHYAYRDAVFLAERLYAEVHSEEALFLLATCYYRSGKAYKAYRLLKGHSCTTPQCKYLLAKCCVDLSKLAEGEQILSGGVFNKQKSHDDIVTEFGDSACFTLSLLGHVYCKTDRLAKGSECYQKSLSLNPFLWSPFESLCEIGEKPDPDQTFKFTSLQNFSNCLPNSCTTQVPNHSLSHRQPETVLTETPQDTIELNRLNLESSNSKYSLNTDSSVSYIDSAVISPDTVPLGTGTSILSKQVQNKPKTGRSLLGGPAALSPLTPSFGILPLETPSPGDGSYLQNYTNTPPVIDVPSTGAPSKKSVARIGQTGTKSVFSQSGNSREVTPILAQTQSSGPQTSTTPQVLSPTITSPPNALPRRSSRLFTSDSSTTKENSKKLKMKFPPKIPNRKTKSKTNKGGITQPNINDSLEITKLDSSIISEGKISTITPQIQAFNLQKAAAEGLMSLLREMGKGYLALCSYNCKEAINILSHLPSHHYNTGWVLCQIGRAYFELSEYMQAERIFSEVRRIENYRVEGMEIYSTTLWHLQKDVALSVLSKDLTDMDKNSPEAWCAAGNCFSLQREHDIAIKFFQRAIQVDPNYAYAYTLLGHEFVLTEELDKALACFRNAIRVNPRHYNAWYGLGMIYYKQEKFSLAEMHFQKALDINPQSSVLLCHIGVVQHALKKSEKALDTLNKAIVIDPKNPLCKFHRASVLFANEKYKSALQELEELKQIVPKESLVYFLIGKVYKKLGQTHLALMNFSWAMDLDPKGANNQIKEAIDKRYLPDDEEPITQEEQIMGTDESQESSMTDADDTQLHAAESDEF

binding result [1]: binds
binding result [2]: no binding
binding result [3]: no binding
B1: CDC20 C-terminal peptide CLRREREKASTSKSSLIHQGIR (peptide)
peptide: CLRREREKASTSKSSLIHQGIR
notes: Synthetic peptide; also called CDC20 C-terminus; CDC20 peptide

binding result [4]: no binding
binding result [1]: binds
binding result [2]: no binding
binding result [3]: no binding
binding result [5]: no binding
B2: CDH1 C-terminal peptide CFSKTRSTKESVSVLNLFTRIR (peptide)
peptide: CFSKTRSTKESVSVLNLFTRIR
notes: Synthetic peptide; also called CDH1 C-terminus; CDH1 peptide

binding result [6]: no binding
binding result [7]: no binding
Binder: CAVWSLSSCKPGFGVD [control peptide CAVWSLSSCKPGFGVD]

From patent EP1469082A1 (Boehringer Ingelheim International GmbH, dated 2004)
